Measurements taken from US4770996A, “Identification of individuals predisposed toward alcohol abuse” (priority 1986, dated 1988).

Substrate: NCCc1ccccc1
Assay: Platelet monoamine oxidase (MAO) assay, deamination of 14C-PEA
Type: biochemical, human
Conditions: other: platelets of control subjects; varying PEA; mean±SEM, n=6; 37.0 °C
Experimental: Platelets were prepared from whole blood (20 ml) which was obtained by venipuncture from healthy volunteers and alcoholic subjects. After standing at room temperature for approximately three to four hours in citrate-phosphate-dextrose solution, each blood sample was centrifuged at 180×G for two minutes. The platelet-rich plasma (PRP) was carefully removed and platelet count was determined from aliquots (20 ul) of the PRP with a Coulter S-plus Thrombocounter. The PRP was centrifuged at 16,000 g for ten minutes. The pellet was resuspended in 50 ml of cold 50 mM Tris-HCl, pH 7.5, containing […] NaCl and 20 mM ethylene diamine tetraacetic acid (EDTA). The centrifugation was repeated twice, and the final pellet was resuspended in 1 ml of cold 5 mM Tris-HCl, pH 7.5, containing 5 mM EDTA. Suspensions were rapidly frozen at -70° C., and samples were stored at -70° C. for no longer than four weeks prior to assay.
To measure the deamination of ^14 C-PEA, assay mixtures (total volume, 0.3 ml) contained approximately 15 ug of platelet protein. Reactions were carried out in 0.1 M sodium phosphate, pH 7.4, at 37° C. […] Two additional ml of water and 20 ml of scintillation fluid were added to each vial, and radioactivity was determined in a liquid scintillation spectrometer. […]

B1: platelet monoamine oxidase (MAO) (Homo sapiens) (protein)
chain: MSNKCDVVVVGGGISGMAAAKLLHDSGLNVVVLEARDRVGGRTYTLRNQKVKYVDLGGSYVGPTQNRILRLAKELGLETYKVNEVERLIHHVKGKSYPFRGPFPPVWNPITYLDHNNFWRTMDDMGREIPSDAPWKAPLAEEWDNMTMKELLDKLCWTESAKQLATLFVNLCVTAETHEVSALWFLWYVKQCGGTTRIISTTNGGQERKFVGGSGQVSERIMDLLGDRVKLERPVIYIDQTRENVLVETLNHEMYEAKYVISAIPPTLGMKIHFNPPLPMMRNQMITRVPLGSVIKCIVYYKEPFWRKKDYCGTMIIDGEEAPVAYTLDDTKPEGNYAAIMGFILAHKARKLARLTKEERLKKLCELYAKVLGSLEALEPVHYEEKNWCEEQYSGGCYTTYFPPGILTQYGRVLRQPVDRIYFAGTETATHWSGYMEGAVEAGERAAREILHAMGKIPEDEIWQSEPESVDVPAQPITTTFLERHLPSVPGLLRLIGLTTIFSATALGFLAHKRGLLVRV
notes: contained approximately 15 ug of platelet protein; from tissue; host or cells: platelets (membranes) from whole blood of volunteers and alcoholic subjects
Km: 1.4 ± 0.2 µM
Vmax: 508±37 pmole/mg protein/minute
